Twelve molecules from paper PMC6017926, “CpG Methylation Changes G-Quadruplex Structures Derived from Gene Promoters and Interaction with VEGF and SP1” can be followed below.

The Kd is a measure of binding affinity in units of concentration. Low values mean higher affinity, high ones lower affinity.

The target in data set [1] is GST-SP1 (UniProt P08047). Kind of data set: SPR. The settings on record: SPR VEGF165: DNA folded in 10 mM Tris-HCl, 100 mM KCl, pH 7.4, 25 °C, ELONA: DNA folded in TK (100 mM KCl) or 100 mM LiCl buffer, binding in TBS (10 mM …).
Data set [2] deals with GST-SP1 (UniProt P08047). Kind of data set: ELONA. The settings on record: 5-methylcytosine at CpG (underlining lost in text; CpG C at 5, 10, 16); SPR VEGF165: DNA folded in 10 mM Tris-HCl, 100 mM KCl, pH 7.4, 25 °C; ELONA: DNA folded in TK (100 mM KCl) or 100 mM LiCl buffer, binding in TBS (10 mM …).
A further data set deals with VEGF165 (UniProt P15692-4 27-191). Kind of data set: SPR; 100 mM K+; SPR VEGF165: DNA folded in 10 mM Tris-HCl, 100 mM KCl, pH 7.4, 25 °C; ELONA: DNA folded in TK (100 mM KCl) or 100 mM LiCl buffer, binding in TBS (10 mM Tris-HCl, 150 mM NaCl, 5 mM KCl), 90 µM ZnCl2, pH 7.3, RT; SPR GST-SP1: captured by anti-GST on CM5, single-cycle kinetics 10-160 nM DNA, running buffer not stated. To be noted: chain copies: 2, label: 5' biotin for ELONA.
VEGF165, sequence (P15692 other isoform, or with tags, fused parts or gaps): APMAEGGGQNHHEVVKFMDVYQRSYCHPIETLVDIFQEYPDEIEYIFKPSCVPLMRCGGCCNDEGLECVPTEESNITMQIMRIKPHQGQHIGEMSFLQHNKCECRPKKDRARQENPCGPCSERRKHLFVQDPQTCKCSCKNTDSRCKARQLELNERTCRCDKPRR

GST-SP1, sequence (P08047 whole entry): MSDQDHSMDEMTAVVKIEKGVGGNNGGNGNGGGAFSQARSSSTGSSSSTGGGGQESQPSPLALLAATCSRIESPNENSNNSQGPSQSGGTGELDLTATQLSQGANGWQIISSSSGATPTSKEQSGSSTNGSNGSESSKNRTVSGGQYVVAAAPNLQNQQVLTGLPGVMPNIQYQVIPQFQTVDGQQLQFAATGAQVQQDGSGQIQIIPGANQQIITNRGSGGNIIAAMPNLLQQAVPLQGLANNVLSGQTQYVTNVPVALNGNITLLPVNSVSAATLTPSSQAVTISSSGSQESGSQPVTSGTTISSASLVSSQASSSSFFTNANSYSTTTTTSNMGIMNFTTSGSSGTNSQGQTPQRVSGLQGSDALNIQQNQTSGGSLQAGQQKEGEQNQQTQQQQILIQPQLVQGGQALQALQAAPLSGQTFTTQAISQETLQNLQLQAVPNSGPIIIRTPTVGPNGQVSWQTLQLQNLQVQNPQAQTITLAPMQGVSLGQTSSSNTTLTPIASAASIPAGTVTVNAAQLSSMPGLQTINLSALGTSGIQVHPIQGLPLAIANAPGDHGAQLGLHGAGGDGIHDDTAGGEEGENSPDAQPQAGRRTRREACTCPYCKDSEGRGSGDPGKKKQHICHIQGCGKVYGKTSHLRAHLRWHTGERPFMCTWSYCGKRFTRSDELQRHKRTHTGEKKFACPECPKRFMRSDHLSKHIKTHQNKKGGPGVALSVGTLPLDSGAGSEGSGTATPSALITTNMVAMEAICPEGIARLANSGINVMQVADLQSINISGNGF

Turning to “CGGGCGCGGGAGGAAGGGGGCGGGAGC [BCL-2 G4 methylated]”, the Kd with GST-SP1 [1] (5-methylcytosine at CpG (underlining lost in text; CpG C at 1, 5, 7, 21)) was found to be 28 nM.
As for “TCGGGTTGCGGGCGCAGGGCACGGGCG [HRAS1 G4 unmethylated]”, the Kd with GST-SP1 [1] is 10 nM.
“GGCGAGGAGGGGCGTGGCCGGC [c-KIT G4 methylated]”: the dissociation constant (Kd) with GST-SP1 [1] (5-methylcytosine at CpG (underlining lost in text; CpG C at 3, 13, 19)) was determined as 11 nM.
Turning to “CGGGGCGGGGCGGGGGCGGGGGCG [HRAS2 G4 unmethylated]”, the Kd with GST-SP1 [1] turned out to be 10 nM.
“GGGGCGGGCCGGGGGCGGGG [VEGF G4 unmethylated]” showed a Kd in the data set with GST-SP1 [1] of 14 nM.
For “TCGGGTTGCGGGCGCAGGGCACGGGCG [HRAS1 G4 methylated]”, the Kd with GST-SP1 [1] (5-methylcytosine at CpG (underlining lost in text; CpG C at 2, 9, 13, 22, 26)) worked out at 36 nM.
In the data set with GST-SP1 [1] (5-methylcytosine at CpG (underlining lost in text; CpG C at 1, 6, 11, 17, 23)), “CGGGGCGGGGCGGGGGCGGGGGCG [HRAS2 G4 methylated]” showed a dissociation constant (Kd) of 27 nM.
For “GGGGCGGGCCGGGGGCGGGG [VEGF G4 methylated]”, the Kd in the data set with GST-SP1 [1] (5-methylcytosine at CpG (underlining lost in text; CpG C at 5, 10, 16)) was 11 nM. Moreover, in the data set with GST-SP1 [2], the binding signal (fold signal vs unmethylated) came to 1.5.
“CGGGCGCGGGAGGAAGGGGGCGGGAGC [BCL-2 G4 unmethylated]” displayed a Kd in the data set with GST-SP1 [1] of 12 nM.
In turn, “GGCGAGGAGGGGCGTGGCCGGC [c-KIT G4 unmethylated]” returned a dissociation constant Kd with GST-SP1 [1] of 16 nM.
GGGGCGGGCCGGGGGCGGGG (structured_DNA) [VEGF G4 unmethylated] came in with a Kd in the data set with VEGF165 (G4, parallel in K+) of 13 ± 0.43 nM.
GGGGCGGGCCGGGGGCGGGG (structured_DNA, 5-methylcytosine at CpG (underlining lost in text; CpG C at 5, 10, 16)) [VEGF G4 methylated] displayed a Kd in the data set with VEGF165 (G4, altered topology) of 25 ± 5.7 nM.
